Results published in patent US20220073604A1 (ARGENX BVBA, published 2022).
Residue numbers refer to the chain shown, from its start.

Experiments:
[1] = target: human IL-6 (as added in the B9 and 7TD1 bioassays) (human) (UniProt P05231); test: cell-based or functional assay
[2] = target: human IL-6 (as added in the B9 and 7TD1 bioassays) (human) (UniProt P05231)
[3] = target: human IL-6 (as added in the B9 and 7TD1 bioassays) (human) (UniProt P05231); test: cell-based or functional assay; remark: listed apart in the source
[4] = target: IL-6 (bact-hIL-6, euk-hIL-6 and bact-cy IL-6; 'average binding' of Table 21); test: average binding level in the off-rate screen (unit not given; n = 2)
[5] = target: T1, bacterially produced cynomolgus monkey IL-6 (cynomolgus monkey, UniProt P79341 28-212, limits assumed); test: off-rate of Fab 111A7 variant on bact-cy IL-6 (binding kinetics, SPR presumed; n = 2)
T1 construct: also called bact-cy IL-6; HIS-cyIL-6

[6] = target: IL-6 (bact-hIL-6, euk-hIL-6 and bact-cy IL-6; 'average binding' of Table 21); test: average binding level in the off-rate screen (unit not given; n = 3)
[7] = target: T1, bacterially produced cynomolgus monkey …; test: off-rate of Fab 111A7 variant on bact-cy IL-6 (binding kinetics, SPR presumed; n = 3)
[8] = target: T1, bacterially produced cynomolgus monkey …; test: off-rate of Fab 111A7 variant on bact-cy IL-6 (binding kinetics, SPR presumed; n = 5)
[9] = target: IL-6 (bact-hIL-6, euk-hIL-6 and bact-cy IL-6; 'average binding' of Table 21); test: average binding level in the off-rate screen (unit not given; n = 5)
[10] = target: T2, human IL-6 (as added in the B9 and 7TD1 bioassays) (human, UniProt P05231 30-212); test: cell-based or functional assay
[11] = target: T2, human IL-6 (as added in the B9 and 7TD1 …); test: cell-based or functional assay; remark: listed apart in the source
[12] = target: T2, human IL-6 (as added in the B9 and 7TD1 …); test: cell-based or functional assay; remark: listed apart in the source
[13] = target: T2, human IL-6 (as added in the B9 and 7TD1 …); test: cell-based or functional assay; remark: listed apart in the source
[14] = target: T3, bacterially produced human IL-6 (human, UniProt P05231 30-212); test: SPR; purified Fab; ratio bact to euk IL-6
T3 construct: also called bactIL-6; prokaryotic IL-6

human IL-6 = target: T4, human IL-6 (human, UniProt P05231 30-212); test: SPR; periplasmic fraction; average of the IL-6 channels; set-up: unit not given here
T4 construct: Used where the text says only IL-6 or human IL-6 (crystals: rh IL-6 from Immunotools; cell assays) and for values averaged over the bacterial and eukaryotic IL-6 channels; also called interleukin-6; rh IL-6

[15] = target: T3, bacterially produced human IL-6; test: SPR; purified Fab over biotinylated IL-6 on streptavidin chip
Experimental: (§1) From the washing phase the off-rate (kd) was determined, while from the injection phase the on-rate (ka) was calculated using the concentration and off-rate as parameters.

[16] = target: T3, bacterially produced human IL-6; test: SPR; purified Fab; IL-6 coated on CM5 chip
Experimental: as §1

[17] = target: T5, eukaryotically produced human IL-6 (human, UniProt P05231 30-212); test: SPR; purified Fab; IL-6 coated on CM5 chip
T5 construct: also called eukIL-6; Euk IL-6
Experimental: as §1

[18] = target: T3, bacterially produced human IL-6; test: SPR; purified Fab
[19] = target: T5, eukaryotically produced human IL-6; test: SPR; purified Fab
[20] = target: T3, bacterially produced human IL-6; test: SPR; periplasmic fraction
Experimental: as §1

[21] = target: T5, eukaryotically produced human IL-6; test: SPR; periplasmic fraction
Experimental: as §1

[22] = target: T3, bacterially produced human IL-6; test: SPR; periplasmic fraction; ratio bact to euk IL-6
Experimental: as §1

[23] = target: T3, bacterially produced human IL-6; test: SPR; purified Fab; remark: listed apart in the source
[24] = target: T5, eukaryotically produced human IL-6; test: SPR; purified Fab; remark: listed apart in the source
cynomolgus monkey IL-6 [25] = target: T6, cynomolgus monkey IL-6 (cynomolgus monkey, UniProt P79341 28-212, limits assumed); test: SPR; purified Fab
T6 construct: also called HIS-cyIL-6

[26] = target: T3, bacterially produced human IL-6; test: SPR; purified Fab, 68 nM
[27] = target: T5, eukaryotically produced human IL-6; test: SPR; purified Fab, 68 nM
cynomolgus monkey IL-6 [28] = target: T6, cynomolgus monkey IL-6; test: SPR; purified Fab, 68 nM

For “CNTO136 (benchmark anti-IL-6 antibody, humanized variant of CNTO328)”, the IC50, 7TD1 cells [1] was 0.19 pM, the Potency relative to 68F2, 7TD1 cells [1] was 3.49 and the IC50 (read off the curve), B9 cell proliferation [2] was 0.2 pM.

B1: B-E8 (IL-6 neutralizing benchmark antibody) (antibody, from another filing, V domains shown)
VH: QVTLKESGPGILKPSQTLSLTCSFSGFSLSTSGMGVGWIRQPSGKGLEWLAHIWWDDDKYYNPSLKSQLTISKDTSRNQVFLKITSVDTADTATYYCARSYDDYLYYALDYWGQGTSVTVSS
VL: DIVMTQSPATLSVTPGDRVSLSCRASQSISDYLHWYQQKSHESPRLLIKSVSQSISGIPSRFSGSGSGSDFTLSINSVEPEDVGVYYCQNGHSFPLTFGAGTKLELK
B1 was tested, and the IC 50, B9 cell proliferation [3] was 5.11 pM, the Rel. potency, B9 cells [3] was 0.2 and the IC50 (read off the curve), B9 cell proliferation [2] was 8 pM.

B2: Fab 111A7 with the CDR3 methionine changed to T (Fab, V domains shown)
VH: EVQLLESGGGLVQPGGSLRLSCAASGFTFSSYAMSWVRQAPGKGPEWVSRISAGGGSTYYGDSVKGRFTISRDNSKNTLYLQMNSLRAEDTAVYYCANRAGWGTGDYWGQGTLVTVSS
VL: QTVVTQEPSFSVSPGGTVTLTCGLSSGSVTASNYPGWYQQTPGQAPRALIYSTNDRHSGVPDRFSGSISGNKAALTITGAQAEDEADYYCALDIGDITEFGGGTQLTVL
With B2 the average binding [4] was 130 and the koff [5] was 0.000144 s⁻¹.

B3: Fab 111A7 with the CDR3 methionine changed to Y (Fab, V domains shown)
VH: B2 VH with T104Y
VL: B2 VL
In the case of B3, the average binding [6] is reported as 104 and the koff [7] is reported as 0.000158 s⁻¹.

B4: Fab 111A7 with the CDR3 methionine changed to D (Fab, V domains shown)
VH: B2 VH with T104D
VL: B2 VL
With B4 the average binding [6] was 112 and the koff [7] was 0.000234 s⁻¹.

B5: Fab 111A7 with the CDR3 methionine changed to G (Fab, V domains shown)
VH: B2 VH with T104G
VL: B2 VL
Work on B5 yielded an average binding [6] of 109 and a koff [7] of 0.000205 s⁻¹.

B6: Fab 111A7 with the CDR3 methionine changed to V (Fab, V domains shown)
VH: B2 VH with T104V
VL: B2 VL
Work on B6 yielded an average binding [4] of 163 and a koff [5] of 0.000242 s⁻¹.

B7: Fab 111A7 with the CDR3 methionine changed to P (Fab, V domains shown)
VH: B2 VH with T104P
VL: B2 VL
With B7 the koff [8] was 0.000899 s⁻¹ and the average binding [9] was 66.

B8: 61H7 (antibody, V domains shown)
VH: EVQLVESGGGLVQPGGSLRLSCAASGFTFSSYRMYWVRQPPGKGLEWVSAISAGGGSTYYGDSVKGRFTISRDNAKNTVYLQMNSLKPEDTAVYYCANRAGWGMGDYWGQGTQVTVSS
VL: QTVVTQEPSLSVSPGGTVTLTCGLSSGSVTASNYPGWFQQTPGQAPRALIYSTNDRHSGVPSRFSGSISGNKAALTITGAQPEDEADYYCALDIGDITEFGGGTHLTVLG
With B8 the “IC 50, B9 cell proliferation (batch 12.8)” value [10] was 1.83 pM, the “IC 50, B9 cell proliferation (batch A8.11)” value [10] was 1.57 pM and the “IC50, 7TD1 cells (batch A8.11)” value [11] was 3.48 pM. The “Potency relative to 68F2, 7TD1 cells (batch A8.11)” value [11] was 0.19 and the “IC50 (read off the curve), B9 cell proliferation” value [12] was about 1 pM.

B9: 129D3 (germlined variant of 68F2), full-length IgG1 (antibody, V domains shown)
VH: EVQLQESGPGLVKPSQTLSLTCTVSGGSITSRYYAWSWIRQPPGKGLEWIGVIDYDGDTYYSPSLKSRVSISWDTSKNQFSLKLSSVTPADTAVYYCARDPDVVTGFHYDYWGQGTMVTVSS
VL: QSALTQPPSVSGTPGQSVTISCAGANNDIGTYAYVSWYQQLPGTAPKLMIYKVTTRASGIPDRFSGSKSGNTASLTISGLQAEDEADYYCASYRNFNNAVFGTGTKLTVL
In the case of B9, the “IC50, 7TD1 proliferation assay, exp 22.06” value [13] is reported as 0.791 pM, the “IC50, 7TD1 proliferation assay, exp 29.06” value [13] is reported as 0.574 pM and the “Rel. Potency, 7TD1, exp 29.06” value [13] is reported as 0.98. For the same molecule, the “IC50, 7TD1 cells (129D3#A1.1)” value [11] was 0.25 pM, the “IC50, 7TD1 cells (129D3U#15.1)” value [11] was 0.23 pM and the “Potency relative to 68F2, 7TD1 cells (129D3#A1.1)” value [11] was 2.65. For the same molecule, the “Potency relative to 68F2, 7TD1 cells (129D3U#15.1)” value [11] was 2.91 and the “IC50 (read off the curve), B9 cell proliferation” value [12] was about 0.06 pM.

B10: Fab 24D10 (Fab, V domains shown)
VH: QLQVVESGGGLVQPGGSLRLSCAASGFTFSSYAMSWVRQAPGKGPEWVSRISSGGGSTSYADSVKGRFTISRDNAKNTLYLQMNSLKPEDTAVYYCANRAGWGMGDYWGQGTQVTVSS
VL: B8 VL
notes: Fab; also called pur24d10; 28f12(24D10)
B10 gave a ratio bact/euk [14] of 1.14, an average binding (human IL-6) of 167 and a Ka [15] of 3.7e+09 M⁻¹. The Kd [15] was 270 pM, the koff [15] was 1.69e-05 s⁻¹ and the kon [15] was 62700 M⁻¹ s⁻¹. The Kd [16] was 1200 pM, the koff [16] was 0.00019 s⁻¹ and the Kd [17] was 850 pM. The koff [17] was 0.00017 s⁻¹, the koff [18] was 0.000143 s⁻¹ and the koff [19] was 0.000125 s⁻¹. It also gave a koff [20] of 0.000183 s⁻¹, a koff [21] of 0.000144 s⁻¹ and a ratio bact/euk [22] of 1.09.

B11: Fab 61H7 (Fab, V domains shown)
VH: B8 VH
VL: B8 VL
notes: Fab; also called pur61H7; 61H7 Fab
In the case of B11, the ratio bact/euk [14] is reported as 1.13, the koff [18] is reported as 4.22e-05 s⁻¹ and the koff [19] is reported as 3.68e-05 s⁻¹.

B12: Fab 17F10 (Fab, V domains shown)
VH: EVQLQESGPGLVKPSQTLSLTCTVSGGSIATSYYAWSWIRQPPGKGLEWMGVIDYDGDTYYKPSLKSRTSISRDTSKNQFSLQLSSVTPEDTAVYYCARAGLGDSYYLGTYYAMDYWGKGTLVTVSS
VL: QAGLTQPPSVSGSPGKTVTISCAGTTSDVGTGNFVSWYQQLPGMAPKLLIYDVNKRASGIADRFSGSKSGNTASLTISGLQSEDEADYYCASYRSLNNVVFGGGTHLTVLG
notes: Fab; also called 17F10 pur Fab 68 nM
Work on B12 yielded a Kd [23] of 43000 pM, a koff [23] of 0.0012 s⁻¹ and a Kd [24] of 6000 pM. For the same molecule, the koff [24] was 0.00072 s⁻¹, the Kd (cynomolgus monkey IL-6 [25]) was 620 pM and the koff (cynomolgus monkey IL-6 [25]) was 0.0007 s⁻¹. The Kd [16] was 43000 pM, the koff [16] was 0.0012 s⁻¹ and the Kd [17] was 6000 pM. The koff [17] was 0.00072 s⁻¹, the Kd [26] was 19000 pM and the koff [26] was 0.00088 s⁻¹. The Kd [27] was 14000 pM, the koff [27] was 0.00077 s⁻¹ and the Kd (cynomolgus monkey IL-6 [28]) was 14000 pM. For the same molecule, the koff (cynomolgus monkey IL-6 [28]) was 0.00078 s⁻¹.
